Data published in publication doi:10.1101/2025.10.15.682582, “A recombinant norrin-derived growth factor retains the complete multifunctionality of human norrin” (bioRxiv, 2025).

Molecular target: T1, rhFrizzled-4/FC Chimera (human, UniProt Q9ULV1 37-212)
T1 sequence (looked up): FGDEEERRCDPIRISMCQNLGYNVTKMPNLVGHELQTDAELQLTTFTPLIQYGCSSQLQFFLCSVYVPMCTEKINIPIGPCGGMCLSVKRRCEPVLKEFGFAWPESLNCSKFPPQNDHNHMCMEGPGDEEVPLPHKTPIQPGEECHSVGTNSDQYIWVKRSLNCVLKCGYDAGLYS
Assay: cell-based or functional assay

TCF/LEF firefly luciferase reporter in HEK-293 cells transfected with FZD4 and LRP5; average EC50 of 3 assays with human norrin: 0.036 µg/mL
B1: human recombinant norrin (ligand, UniProt Q00604 25-133, looked up)
chain: KTDSSFIMDSDPRRCMRHHYVDSISHPLYKCSSKMVLLARCEGHCSQASRSEPLVSFSTVLKQPFRSSCHCCRPQTSKLKALRLRCSGGMRLTATYRYILSCHCEECNS
